Laboratory results taken from patent US20110300138A1 (published 2011).

Assays:
[1] = molecular target: TSHR with Arg255 mutated to Ala, expressed in CHO cells (human) (UniProt P16473); experiment: cell-based or functional assay
[2] = molecular target: TSHR with Asp160 mutated to Lys, expressed in CHO cells (human) (UniProt P16473); experiment: cell-based or functional assay
Chain of TSHR with Asp160 mutated to Lys, expressed in CHO cells (human) (P16473 other isoform, or with tags, fused parts or gaps limits assumed, change not shown): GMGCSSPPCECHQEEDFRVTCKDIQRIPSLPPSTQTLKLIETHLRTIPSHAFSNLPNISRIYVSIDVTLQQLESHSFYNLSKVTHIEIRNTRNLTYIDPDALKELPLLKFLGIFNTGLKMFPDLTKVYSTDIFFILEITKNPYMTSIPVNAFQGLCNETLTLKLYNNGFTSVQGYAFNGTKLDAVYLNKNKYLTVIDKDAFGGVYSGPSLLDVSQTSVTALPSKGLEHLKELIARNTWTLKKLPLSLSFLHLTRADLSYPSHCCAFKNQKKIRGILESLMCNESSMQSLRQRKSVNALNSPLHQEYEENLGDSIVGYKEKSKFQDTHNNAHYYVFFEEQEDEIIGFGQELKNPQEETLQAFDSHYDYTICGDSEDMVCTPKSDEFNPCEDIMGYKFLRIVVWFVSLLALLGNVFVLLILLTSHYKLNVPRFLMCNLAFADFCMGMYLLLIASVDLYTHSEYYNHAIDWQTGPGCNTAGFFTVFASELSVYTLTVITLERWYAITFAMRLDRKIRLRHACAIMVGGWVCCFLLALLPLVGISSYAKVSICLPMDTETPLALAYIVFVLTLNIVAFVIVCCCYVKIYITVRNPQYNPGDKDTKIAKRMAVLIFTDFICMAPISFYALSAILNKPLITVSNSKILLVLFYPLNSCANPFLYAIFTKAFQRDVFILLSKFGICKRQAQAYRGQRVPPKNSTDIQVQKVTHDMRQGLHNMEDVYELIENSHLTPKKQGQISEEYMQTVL

Chain of TSHR with Arg255 mutated to Ala, expressed in CHO cells (human) (P16473 other isoform, or with tags, fused parts or gaps, change not shown): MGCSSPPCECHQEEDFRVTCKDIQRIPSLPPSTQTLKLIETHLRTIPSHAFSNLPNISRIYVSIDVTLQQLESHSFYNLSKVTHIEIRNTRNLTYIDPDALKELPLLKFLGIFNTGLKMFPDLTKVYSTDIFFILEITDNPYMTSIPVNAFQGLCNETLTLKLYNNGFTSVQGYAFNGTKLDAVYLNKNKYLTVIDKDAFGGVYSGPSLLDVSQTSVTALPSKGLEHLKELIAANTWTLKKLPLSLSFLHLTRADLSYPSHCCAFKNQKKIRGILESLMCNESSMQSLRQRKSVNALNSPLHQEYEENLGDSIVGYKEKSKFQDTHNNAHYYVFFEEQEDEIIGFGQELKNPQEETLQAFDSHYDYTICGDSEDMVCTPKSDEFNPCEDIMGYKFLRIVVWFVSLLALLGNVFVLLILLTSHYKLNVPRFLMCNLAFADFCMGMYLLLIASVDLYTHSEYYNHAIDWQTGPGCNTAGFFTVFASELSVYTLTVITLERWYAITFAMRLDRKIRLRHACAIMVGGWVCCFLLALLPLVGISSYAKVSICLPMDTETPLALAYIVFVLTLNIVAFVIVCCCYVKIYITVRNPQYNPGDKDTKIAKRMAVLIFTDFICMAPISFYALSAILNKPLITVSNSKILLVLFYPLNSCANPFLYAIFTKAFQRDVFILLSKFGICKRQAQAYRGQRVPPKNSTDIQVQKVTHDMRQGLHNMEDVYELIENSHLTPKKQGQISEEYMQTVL

5B3 IgG (antibody) showed a % inhibition of TSH stimulation; 5B3 10 µg/mL [1] of 12%, a % inhibition of TSH stimulation; 5B3 100 µg/mL [1] of 2% and a Cyclic AMP produced; 5B3 10 µg/mL + TSH 3 ng/mL [1] of 56.4 pmol/mL. The Cyclic AMP produced; 5B3 100 µg/mL + TSH 3 ng/mL [1] was 62.5 pmol/mL, the Mutated/wild type (%) of cyclic AMP produced; 5B3 10 µg/mL + TSH 3 ng/mL [1] was 75% and the Mutated/wild type (%) of cyclic AMP produced; 5B3 100 µg/mL + TSH 3 ng/mL [1] was 92%. It also gave a % inhibition of TSH stimulation (stimulator given as M22), mutated TSHR; 5B3 10 µg/mL [2] of 0%, a % inhibition of TSH stimulation (stimulator given as M22), mutated TSHR; 5B3 100 µg/mL [2] of 11% and a Mutated/wild type (%) of cyclic AMP produced; test sample: 5B3 10 µg/mL + M22 [2] of 69%. For the same substance, the Mutated/wild type (%) of cyclic AMP produced; test sample: 5B3 100 µg/mL + M22 [2] was 60%.
